The values that follow come from patent US20160045158A1, “DEVICES, SYSTEMS, AND METHODS FOR TRANSDERMAL DELIVERY OF COMPOUNDS” (PROMETHEON PHARMA, LLC, priority 2013, published 2016).

In data set [1] the test system is keratinized apical layer of the mouse cervix. Particulars: in vivo.
From the text: The P188/PG (80/20 ratio) co-polymer was then used to deliver FITC-tagged 38 amino acid cytotoxic decoy peptides.
To achieve topical delivery of decoy peptides into the entire mouse cervical T-zone, a solid FITC-tagged decoy peptide-containing co-polymer/enhancer rod was manually delivered into the endocervical canal and into one of the 2 cervical/uterine horns of a 7 month old K14E6 homozygous female transgenic mouse expressing the HPV type 16 E6 oncoprotein that synergizes with 1713-estradiol to induce low-grade dysplasia (CIN I, II) in situ that closely mimics the step-wise development of human cervical cancer; the “untreated” cervical served as an internal control.
After animals were anesthetized, a “speculum” comprised of a standard P-100 pipette tip with the tip cut off at the midpoint along its length was inserted into the vagina to expose the opening of the cervical canal. A three-fourth inch long, 24-guage catheter (Teruma Surflush; inner diameter 0.47 mm) with the trocar removed was fit onto a compatible P-10 micropipette. The catheter was loaded with the peptide-containing, liquid co-polymer/enhancer formulation to a length that approximates the entire cervical T-zone and extends across the squamo-columnar junction into the uterine horn. […]
1 mM FITC-conjugated *Br1 was used for direct visualization of peptide delivery by fluorescence microscopy. […]
For data set [2], the system named is EpidermFT™ (MatTek) full thickness human skin equivalent tissues. Kind of data set: Transdermal flux/accumulation across EpidermFT full thickness human skin equivalents (Iso-Insulin ELISA of receptor fluid). The data set is classed as in vitro ADME. As to the method: Proof-of-concept ex vivo studies of transdermal delivery of long-acting insulin analogues by a poloxamer 188, propylene glycol and lauracopram formulation designated TopiconDM™ were performed using metabolically active full thickness human skin equivalent (HSE) inserts from EpidermFT™ (MatTek) grown on a semi-permeable membrane that allows test compounds to pass through the tissue and accumulate in the receptor fluid on the other side. It is important to note that the term TopiconDM™ is a trademark, is not descriptive of the subject formulation, and is merely an indication of the source of the subject formulation. Thus, the use of the term TopiconDM™ herein shall not be used to affect any trademark rights associated with the term TopiconDM™.
All transdermal delivery in this model occurs exclusively by permeation across the barrier-enhanced stratum corneum. Drug permeation studies were modeled according to classic Franz cell in-sink diffusion studies. Studies were carried out for 5-7 continuous days to determine whether a 7-day TopiconDM™ basal insulin patch containing an insulin or insulin analogue is feasible. A semi-high throughput protocol was developed for the use of EpidermFT™, a barrier enhanced, mitotically and metabolically active human skin tissue model.
To determine the feasibility of creating a 7-day (weekly) TopiconDM™ insulin glargine patch, a protocol was developed in which the tissue inserts were incubated in tissue culture maintenance medium (with serum). All insulin and insulin analogues were commercially purchased and lyophilized. TopiconDM™ insulin glargine formulations were specifically adjusted to pH 4.0; all other insulin formulations were adjusted to pH ˜7 were prepared to deliver doses ranging from 0.01-50 IU in a volume of 50 microliters at 32° C. applied to the apical surface of individual 0.6 cm^2 EpidermFT™ (MatTek) full thickness human skin equivalent tissues in 6-well plates containing 2.0 ml of receptor fluid incubated at 32° C. throughout the duration of each study. It was empirically determined that 50 microliters of the formulations was sufficient to cover the entire surface of the tissue inserts when applied directly to the center. 200 microliter samples from the receptor chamber on the basal side were removed at 0.5, 1, 2, 3, 6, 8, 12, 20, 24 hours and then every 24 hours for up to 7-days; 200 microliters of fresh maintenance medium with serum was added back to receptor chamber after each sampling (closed system model). Plasma insulin and insulin analogue accumulation in mIU/cm^2 (reflecting transdermal delivery across 0.6 cm^2 tissue surface area) was quantified using the Iso-Insulin ELISA Kit (Mercodia AB, Uppsala, Sweden).
The MatTek EpidermFT™ (EFT-300) tissues are also documented to have more of the structural features of the basement membrane. […] The saturating dose for insulin glargine is 10 U/0.6 cm^2 since the flux is not increased at a dose of 20 U/0.6 cm^2. Indeed, the accumulation curves for these doses are superimposable. Results reflect ELISA measurements (Mercodia Iso-Insulin) performed in triplicate for samples at each time point.

The conditions of data set [3]: cited from earlier work.
A short description of data set [4]: Plasma glargine PK in STZ-induced male CD hairless rats (type 1 DM). Particulars: single 2 U subcutaneous injection. Type of data set: in vivo, rat. On the procedure:
(§1) Referring to FIG. 14, shown is a 24 Hour PK/PD study showing rapid appearance in and elimination of SC Injected Glargine from the Systemic Circulation. The red plot is the glargine concentration from pooled plasma (average±std dev of ELISA measurements). Blue plot is blood glucose (BG) concentration (average±std dev) measured by ACCU-CHEK® Aviva glucose meter. Average BG (blue line) and range (white horizontal bar) in normal CD hairless rats was determined to be ˜130 mg/dL (100-160 mg/dL) in a cohort of adult rats weighing ˜250 gm.
ELISA to quantitate the plasma glargine level was performed in triplicate on pooled blood for each time point (alternating N=2 and N=3) using the Mercodia Iso-Insulin kit. Blood samples were pooled to allow for adequate sampling of many time points over the course of 24-hour study and to reduce variability. This method has been validated for performing PK studies.
(§2) Green plot is plasma glargine concentration (average±std dev). Brown plot is blood glucose concentration (average±std dev) measured by ACCU-CHEK® Aviva glucose meter. Measurements were obtained from all individual animals (N=4) at each time point (i.e. blood samples were not pooled). ELISA to quantitate the plasma glargine level was performed in triplicate on blood samples from individual animals (N=4) at each time point using the Mercodia Iso-Insulin kit.

Data set [5] concerns STZ-Induced Male CD Hairless Rat: Type 1 DM. The data set is described as follows: Blood glucose PD in STZ-induced male CD hairless rats (type 1 DM). Type of data set: in vivo. On the procedure: as §1
PD (Y-axis scale on right): The blood glucose (BG) and plasma glargine plots are essentially minor images of each other, consistent with an expected dramatic BG lowering effect after insulin glargine injection. The baseline mean BG of ˜375 mg/dL rapidly reached a nadir of ˜70-80 mg/dL that was persistent between 0.5-5 hours, representing asymptomatic hypoglycemia.
as §2
Referring to FIG. 16, A PD study of insulin glargine BG lowering effect comparing 1 U subcutaneous (sc) injection (gold standard) versus 5 U/1 cm^2 patch was performed. Referring to FIG. 18, the blue plot is BG concentration (average±std dev) of rats that received a single 1 U subcutaneous injection. Brown plot is BG concentration of rats that received a 5 U/1 cm^2 patch. BG measurements by ACCU-CHEK® Aviva glucose meter were obtained from all individual animals (N=4) at each time point (i.e. blood samples were not pooled). ELISA to quantitate the plasma glargine level was performed in triplicate on blood samples from individual animals (N=4) at each time point using the Mercodia Iso-Insulin kit.

The format of data set [6] is in vitro ADME, human. On the procedure: In human studies, the total plasma free insulin concentration reached a plateau concentration of 18.9 µIU/mL based on a well cited published study of glargine pharmacokinetics after a single subcutaneous injection in type 1 diabetic subjects over 3-24 hours (Lepore, M et al 2000, Diabetes 49:2142-2148). However, the actual steady-state plateau glargine concentration was 6.4 µIU/mL because the patients were titrated to an insulin concentration of ˜12.5 µIU/mL with a continuous lispro short-acting insulin infusion before glargine was administered. After scaling for average adult blood volume of 5 L and adjusting for known cross-reactivity of our ELISA assay with various insulin analogues (44% for glargine, 22% for detemir), a table comparing patch size and insulin dose required to achieve targets of 6.4 µIU/mL within 24 hours after administration of TopiconDM™ containing insulin glargine could be determined. […] However, it is apparent that the 10 IU/0.6 cm^2 dose of insulin glargine can achieve and maintain a target steady-state total insulin concentration of 6.4 µIU/mL with a 0.6×0.6 cm patch throughout the 5-days of the study.
The concentration of insulin glargine achieved is based on accumulation in 2.5 ml of receptor volume in the tissue model extrapolated to average adult blood volume of 5 L. […]

With “ERQIKIWFQNRRMKWKKATGCLLDDGLEGLFEDID [*Br1]”, the “penetration across keratinized apical layer of mouse cervix / cervical squamous epithelium” value in data set [1] is recorded as “Successful transdermal delivery”.

Turning to “Human growth hormone (hGH): human growth hormone (22 kDa)”, the flux dose-response entry in data set [2] is given as “clear dose-response”.

Turning to insulin aspart, the flux dose-response entry in data set [2] is given as “clear dose-response”.

Consider insulin detemir, for which, in data set [3] (single 0.5 U/kg dose, patients with type 1 DM), the Cmax for adults is 208 microU/mL.

Take insulin glargine: in data set [4], the “return of plasma concentration to baseline level” value was at most 5 h and the t1/2 is about 2 h. Also, in data set [4] (adult rats ~250 gm), the “Cmax (plasma glargine)” value is about 120 microU/mL. Further, the “hypoglycemia (BG<100 mg/dL)” value in data set [5] (1 U sc injection) was “rapidly became hypoglycemic”. In data set [5] (2 U sc injection), the “hypoglycemia (BG<100 mg/dL)” value was “rapidly became hypoglycemic”. Also, the “period during which blood glucose nadir persisted” value in data set [5] (2 U subcutaneous injection) lay in the range of 0.5 to 5 h. This substance registered a blood glucose nadir in data set [5] (2 U subcutaneous injection, baseline mean BG ~375 mg/dL) of 70 to 80 mg/dL. Also, the “size of patch required to achieve and maintain target levels” value in data set [6] is recorded as “under 1 cm×1 cm”. Further, in data set [2], the flux dose-response result is on record as “clear dose-response” and the “saturating dose (flux not increased at 20 U/0.6 cm^2)” value is 10 U/0.6 cm^2. Besides, in data set [3] (after subtracting ~12.5 µIU/mL lispro infusion background), the “actual steady-state plateau glargine concentration” value is 6.4 µIU/mL. For the same substance, in data set [3] (single subcutaneous injection of glargine, type 1 diabetic subjects, over 3-24 hours (Lepore 2000)), the “total plasma free insulin plateau concentration” value is given as 18.9 µIU/mL. Besides, in data set [3] (single subcutaneous injection, patients with type 1 diabetes), the “mean plateau plasma concentration” value is about 6.4 micoU/mL.

Regarding insulin glulisine, in data set [2], the flux dose-response entry was “clear dose-response”.

Turning to insulin lispro, the flux dose-response entry in data set [2] is “clear dose-response”.
